# Test results from the NTF2 design screens of Basanta et al. (2020).
# Experiment: protease stability score; higher = more stable; yeast display proteolysis, trypsin and chymotrypsin;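 note: relative to predicted unfolded state with 0 unfolded-like and 1 meaning tenfold more protease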
row,Sequence,protease stability score
1,SEEHEDAEKWIRILLRDLKTGDEESLFQLLDPHTKLEVGDKHFHGREQVMRYVLHELKRVDHMEVELKHHHIQGEKAHLDIEVHNIFDGRVFVKHVHIDSKKINGRWRQEKIYIE,1.33
2,DETEEVMERVIQMLAHATHTGDWKDIRRLMDPNVKININGREIIGREELIRYLRELRETYHHFELKHVEVQGDKIIVHGRTLIRIEIGDKEIHLDSDVRYILWKVDGRWIMESIHIV,2.18
3,DEIERESRKFFELWVHWYRTGNFEEIHKNLDPNARIEINGREIHGREDVLRLLEEIAKQFDHIEVELKDMHVQGDKMTIEGIIIFHFNGKRVEIHMIHIVLKINGQWFEHSQEYN,0.626
4,DESEEHSEIMLRILHHALRTGDEEEITRLLDPHVRVIIGDKHYHGWEDYVKTVFTTAKEMRMHIHITDSKVQGNYVHLDTRLLIHYNGKTFTYNTRLVTVKVNGQWRLHSETSH,1
5,DDDEHDTEKLLTFYSHAERTGDEELLRHLFDPDVKLYIGDKLFIGWRLFKERFRRWVEELGINHIEVHLHRYRIQGDKIDMDTRLELRYDGRTEHVESHVIVRKVDGRWNFERMHFN,0.745
6,DEEEKILHDALEELKREFETGDEELWQRLADPHTRVEVGDKEYHGREEFVKMMSDFVRHLRWEELRIRSVHAQGEKVITHIELEMNIDGRREIHNVTIIMRKINGRWHIEFMHKR,0.926
7,SEERKELKDIADEIFERHLTGDWKTFLRLADPNVRLQVNGKDIHGREEVVRWLNEIRYHHLTIHDRTVVDGVVISDVEEDGQVNGQKSRYRVHYVFVVVDGRFKSIHVTIT,1.3
8,DHREHRSHRIAEWILRNLVTGNEDEISKLLDPDARVIINGQEVIGREEINRMLRHVFNEIRIHDIEIRDLEIQGEFAFVDTRLDGEFDGRRIKQKSELRIVVINGRVRELEIRIH,1.52
9,SEETEFAKEMLDIIFNLLRTGDWEYLVRLMDPHVRVIYGDKVTHGRDIIQYMHEHIRIRHLEFRHFDVIGDKINVDGRMEGEVNGRHDKTEMHIILLKINGRWSLHSIEIR,1.39
10,SEDEEMNRLAIELLLRYMRTGDEHKLEELADPNVRIEVGDKESVGREVFLRFWMHLKKKLGIDVVEIELHEIKHYDGRVHSDTRFIMNVNGVEYRRDTEVVAHKVDGKWMLEHVHVE,0.92
11,SEDDEKSQEIMHRFIKYYETGDWKRLYELADPNARSYYNGKERHGMDVIRDLIEKVKNVKLHIRRIESDVQGDKINLHLDVEVDIDGQIMTLHDTVHAEKIDGRWRIRIIFLHVK,1.36
12,TEEEEEFHRMFELEVRAWRTGDEETIRRLFDPHARIDFNGRDVIGRDEFIKRFQELGVEVHDLKIHNFRIVGDKVHWDIRLDGTFNGKRTKLEIHLYAEKYDGQWFNKTEYYI,1.36
13,DQHERELEHAMEMLEKILKTGDERLFEHYADPHIRLEIEINGRRIDDHGRDLVLHLWRKMGADHMNIRSIDIQGDKLILNSTIEFNGQIHRSRFISLKVNGRWFIESVRLQDT,0.907
14,SEEEEILRHIVELLLHILITGNEHALRTLLDPNARVDINGVTIHGREQESHIILEEVERIDHMDLKIEHLHVQGDKVHTKVERTIHIGEKEIRIEEEINLVIFNGRLRVSILHVH,0.97
15,REEEHAMKSMIDLWIESMNTGDERSISEMADPNAKNRVGDKTFVGMELLSHILFKLVKELGVRIEDHKIHDIKVQGDKIVSHVRLHLKYGDKEEDHETIIYTRKINGRWLIERVEVI,1.53
16,SEEEEDRRIAVEEMLRYWHTGDEEDLNRLFDPNVRADFNGKDLVGREHMKEHYERLGYDKFDVRVKDVRVIGDKVEMDGHLRFDGVERDLHIFVIKVNGRWLVKHTEYR,0.904
17,DHEFEDSKRATEETLHLIETGNEEKIRQLADPHVRIIIFINGRDIHLHGREELSRHISEMGVDHRRWTELRLFEGHAENDVKVNFNGREFKVIIFVRKVNGRWVIERLEVHVI,2.25
18,DEIDERLHFLMKRVLHLWETGDWDMWMNYADPHVRHEIIIGDKRYSLHGREEYAEELLRHHRHIRLHTIHITHIDVVNGRVELNGRVNGDINGQHVDVELYVELKVVDGRIESERMEFR,0.412
19,TEEEEMYHKFAHEIARNLVTGDEDRLLELADPHVKSNVNGVELHGMEHFLEFWIHIVKEIRVHLRITHVTVINGVVIHDSEYEFIVNGKRHTTRVEIWWVVVDGRVHRVELRFK,1.17
20,DEEEKEIKEMLHEYLRAVETGDEHTLHRLMDPHVRIDVNGRQVVGREEWLKILRELGIKVSELIFRDIKFQGDKVNIDAEERLHYNGRTVTTRVTITAWKYDGRWTVQSKKVD,2.04
21,DEHHETLKRMTDQTLHVIHTGDEETWNQLADPNTLIRIIFENREINIHGWHLVVRWLQHLHRELRIEIDIRDIEIQGNKVHVEGELHVHQGEKEINIRIIFHFIVVNGRLRDVTIDFR,1.3
22,SEDEEAVRRILKKLLQSHETGDFRMFDRMLDPHVRLDVNGREHIGRESVHRVVEELRIEDMRLTDMHSQGNYLDIDGRLDGSVNGKKDTYRVRLVILKVDGRWIIEEMRIG,1.95
23,DEEEELREESEKFEHRAWETGDWKLLAELMDPHTRFITEDHDFHGRENMEKLLEDDLRRIKNATIRSIIIRRTHEINGRLLLIGIVDVEIDGKRVIRDVKYIKVKINGRWYITTMQVR,0.796
24,DESEKHAEEFLRLLEESLLTGNWKFISELLDPRARTDYNGRDLHGRETMERWVKDFVRHIRIDHINNKTIDVQGDKVIIIGEVDGTINGRRERLEVHIFFLKVNGRWYLESTEFR,1.27
25,SEIEEQVEEAYRLILEMLHTGDEHTMHELIDPHVRHRIDGQTYHGREFLIKWLVKLREDWGVEKISVKLKFITIIGDFALVVVDIHINGVKLKNHTLATKVNGRWRDHTVNIEHI,0.637

row,Sequence,protease stability score
1,SERDKFTEEVARLWYHLLYTGNEELLQHMMDPDVRVHINGRTVVGRHEATRLLHELSETFGINHIHIHDIKIQGDKSDDDTEIQAPGRRVRVHIHLEIINGRIKRIEFRIE,1.68
2,SEKRQEERKMLELIEHYWQTGDFELLRELADPDTKVRIGDKERHGWEAYIEILRTLGADHMSIRDQKTVGDYVILHIDIRIGDKRYETTLVSEKFDGRWILRRSEFR,1.16
3,SDEEHRREKLNRIMLEWWMTGDWKHIEHLADPNVRLEMNIGNKHLDHHGREELSRLIIELLKELGFKHSHLEHVEIQGDKFISIVRLHVNGVHFIVHIESVIINGKLTELRIEIRKV,1.21
4,DERHDDSRDLAHIFLHLLHTGDEDTIQEYLDPNAKYTLNINGVRVIMHGRETITRHWKEWLDKFKNATIHINDSTVQGDKVHNHTSMEINGQTHNTWIVVVVFNGKVRMIIVDVI,1.29
5,SEQEEITKKATEDMLRNIETGDPDMIDHLLDPDVRQEIIINGRSHENHGMEKLRKWLSTWHDEFKNVKYDLRTVEIIDGRVRIEGVLNVDGVDLHIEIRLVIVNGKLREVYHHVD,1.36
6,SEIQHELSEMMKIVIHQFLTGDEEEFRHLVDPNVKFIFNGRLLIGWKSLSDFLKEHLERVDHWHVEIKRVRVYDGRLDISGRLRLVQGDKEHNLDVRMHLETIDGKITSVEIRVH,1.28
7,VETEERLHDIVHSIIRLDETGDEQDFDRLVDPNAKFDIDGKELHGRDNFRHMWARYRRELGVDHIQFKHVFIQGDKIHQERRVTIGDKTYNMHVDLVVIDGRIQHVRYRIR,1.56
8,DEHEEDVSKFTKMWEEDIRTGDEDSLYKMIDPHALLDFNGKEIIGREEVMHILHEELRELRIHNVHTHDIKVQGNKVNLNIRFNIEINGRIYDLQYKYDWRKINGRWFAHSEVIR,0.764
9,DRREEHAVNVFEIMFVLLLTGDETLFDKLFDPHVLFIIGDKEYHGRERFSKEMLRWIEEWRIQEFKIKDVRVVGDKAEIDGRIRGRYGDKETEIELHLIVMKVDGRWLVHSIELV,1.09
10,DEINKMLKEVLDRYTEAIRTGDEDILLELLDPNTRVIINGQDKHGREYWYTWFAELLKRVDHQDVRFHEIRLQGDKVQVDVELIFNAENHHLHIRTDIIIEKFDGRWIITEFRMH,1.38
11,DEEHEHLHKWLDMLLYAHKTGDPEVILKNADPHVRSEVDGREVHGMEKFARDLYEMRIHRIHIKDVKTIGNKLDVDGRLDGEFNGKRVDSDVHLHLVVIDGRLHSLHIKHR,0.558
12,SEDDESLKRHIDLLLRVLETGNEEDLFRMIDPDAKMDWNGVDNHGMELIHKVWHELGLSNVRSHTEDFRVVGDKAEIHIRVEFNGRHHRVEIHTLKINGRWRVRRFHIR,2.4
13,SREEEDAKLALDLLIEALKTGDEHEIKELLDPTTRMEVGDKELVGRENISKHVSDMVHRIDHIEVRLHDMTIINGVVHLDTRLILHFNGRTHTQETRVIVWKFNGRWIITHIHVK,1.28
14,HEEEHEMRKLAHILFEVLLTGNWKLLAELADPDVLTHINGRDMHGMESELETWKHLRIRDMKIRHVDVQGDKVHLDTELEGEINGRRFQTRTHIHYLLVDGRTKHVKVQID,1.51
15,SEEEEHIREHSERFIEAWKTGDWEELSRMIDPHARIVVNGKEVHGRSDIERMLRETMEKMGANHIQEESVHYQGNKIILHETVNVGDKRLRLTIVIHVVNGKVRRVEFHIEQR,2.17
16,HEDERAFEHFIELLMHTLRTGDEELWKHLADPNYLLDVGDKHFIGRERVVEWIRHIRIKDVRVEHYKIQGDKAEIHTRVDGNIDGKELNLHSRFKMHKVDGRWLLEEVEFR,2.22
17,EEEEEHMEHMMRLTLQLFKTGDEETFIDLLDPNVKVHINGVTVHGWDRLIRVKEMIDKEIRFRDFIIHHIRVVDGRAEMEGTVTGDVNGQSRIRDWRSILVVIDGKIKSISWQFN,2.27
18,DEQEEKLERMYKLWLELHRTGDEEILTELIDPTARLEVGDKSFHGREILIEWFHRELKRIDHKEVRERHIEIQGEWLHAEIEVIIIVNGREIRITTELIIVTINGKIKSINIKIR,2.23
19,DEKSEHILELLRLMLELLVTGDWSMLRKLVDPNARMYYGDKEFHGWEDMVKFIKILLERIDHVEIRLHNSDVQGEKAKSDGTLIERVNGQEVRFDSHIINIVVNGRAKEVRIEVH,1.22
20,SEHDEYAKKVVEIIWKDMLTGDEDKFSEMADPDVRLDIGDKHHHGMEEMTEILTRVYKHIRIEDWRIRDIRHINGKAVVDGHTTIEIGDKRIHRRVELIVIVIDGRLKTLEYRVH,1.09
21,TERDEHSRKMAHALVENFRTGDFETLHDLFDPRYLVILYIDGVDIRLHGREDFLRELKLINDRLGVDRVNLSVKHMEIQGDKVIMHFEEHQGDKTRRSEIRLEIINGRLRTSEWWIH,0.788
22,SEEEEKAVKVTEEILHNLLTGDWERLAEMLDPDTWLHQGDKHRHGREQVLKHFSDFYNEIRIEDFKIHDITVQGEKAISHGHVKMRYGDKVRETSVRFVLIVIDGRIDQIEVHVH,1.8
23,HEDEEISQNMMETMLRIIHTGDWHRFTELFDPHVRIEVNIGDKHLESVGREEARKWLERFKNRRTEIRDAKVRVQGDKVEIRIDGNVNVDGKEKHVEIILYIEKIDGRWLVHSVIIIIE,2.13
24,DESEKDSHMASLHIIELIETGDWRELRELLDPRTRLHIGDKDIHGREEALRNIIRVWHHMRIHRVHIRSIRLQGDYVRVEFEVDGTIDGKHHRIEVEFVAQKIDGRWHLKSEIYH,1.12
25,DEDEEEMEKMSREISEMLLTGDFDRLLELLDPNYRLRIGDKDLHGREEAKKHMHELFRHLGVDKFEVRLKQVELVDGVIWVHIEQRYDGRDFQIHVINKKIDGRWHVRRVEFE,1.72
